Experimental data: PMC3072391
Where two headings read alike, the source gives them in different places.

How the values were obtained:
[1] = biological target: NS5BΔ21-5a fused to cyan or citrine fluorescent protein (hepatitis C virus genotype 5a (patient isolate)); assay: FRET or BRET; in vitro; purified NS5BΔ21-cyan and NS5BΔ21-citrine of the same genotype mixed equimolar, 50 nM each; 10 mM NaCl and 4.5 mM Mg(CH3COO)2; excitation 432 nm, FRET ratio = emission 530 nm/478 nm, normalised against NS5BΔ21-1b; twelve independent experiments
[2] = biological target: NS5BΔ21-5a fused to cyan or citrine fluorescent protein (hepatitis C virus genotype 5a (patient isolate)); assay: as above; remark: listed apart in the source

Substance: NS5BΔ21-5a fused to cyan or citrine fluorescent protein (enzyme)
- FRET ratio relative to NS5BΔ21-1b [1]: < 50%
- FRET ratio relative to NS5BΔ21-1b [2]: 40%
